Molecular target: MBP-PrLD (C-terminal half of FCA containing prion-like domains) (Arabidopsis)
Assay: SEC-MALS

Substance: MBP-PrLD (C-terminal half of FCA containing prion-like domains) (domain or fragment)
- stoichiometry N: > 100 molecules
